Biological target: the molecule itself
Experiment: cryo-EM structure

B1: Redβ177-His6 (C-terminally truncated Redβ annealase of bacteriophage λ, residues 1-177) (domain or fragment, bacteriophage lambda (phage λ), UniProt P03698 1-177, looked up)
chain: MSTALATLAGKLAERVGMDSVDPQELITTLRQTAFKGDASDAQFIALLIVANQYGLNPWTKEIYAFPDKQNGIVPVVGVDGWSRIINENQQFDGMDFEQDNESCTCRIYRKDRNHPICVTEWMDECRREPFKTREGREITGPWQSHPKRMLRHKAMIQCARLAFGFAGIYDKDEAER
B1: binds.
